Measurements from publication PMC3884069 (Cellular and molecular life sciences : CMLS, 2012).

Experiments:
[1] = target: HLA-G6 (soluble HLA-G isoform, α1–α3 domains) (human) (UniProt P17693); experiment: non-reducing SDS-PAGE and western blot
[2] = target: the molecule itself; experiment: non-reducing SDS-PAGE and western blot

Row | stoichiometry N [1] | Molecule | stoichiometry N [2]
1 | 2 | HLA-G6 (soluble HLA-G isoform, α1–α3 domains) (from UniProt P17693-6 25-227) (natural protein) | 
2 |  | HLA-G4 (membrane-bound HLA-G isoform, α1–α2 domains) (natural protein, human, UniProt P17693-4 25-246, looked up) MHC heavy: GSHSMRYFSAAVSRPGRGEPRFIAMGYVDDTQFVRFDSDSACPRMEPRAPWVEQEGPEYWEEETRNTKAHAQTDRMNLQTLRGYYNQSEASSHTLQWMIGCDLGSDGRLLRGYEQYAYDGKDYLALNEDLRSWTAADTAAQISKRKCEAANVAEQRRAYLEGTCVEWLHRYLENGKEMLQRAKQSSLPTIPIMGIVAGLVVLAAVVTGAAVAAVLWRKKSSD | 2
3 |  | HLA-G2 (membrane-bound HLA-G isoform, α1–α3 domains) (natural protein, human, UniProt P17693-2 25-246, looked up) MHC heavy: GSHSMRYFSAAVSRPGRGEPRFIAMGYVDDTQFVRFDSDSACPRMEPRAPWVEQEGPEYWEEETRNTKAHAQTDRMNLQTLRGYYNQSEANPPKTHVTHHPVFDYEATLRCWALGFYPAEIILTWQRDGEDQTQDVELVETRPAGDGTFQKWAAVVVPSGEEQRYTCHVQHEGLPEPLMLRWKQSSLPTIPIMGIVAGLVVLAAVVTGAAVAAVLWRKKSSD | 2
